Measurements published in patent US20220251204A1 (AstraZeneca / MedImmune, published 2022).

Tests used:
[1] = molecular target: T1, His-tagged PD-L1-Fc (human recombinant protein, R&D Systems) (human, UniProt Q9NZQ7 19-238); assay: Octet: PDL1-HiS-Fc loaded anti-HiS sensor, 5ug/mL rhOx40-Fc association
T1 construct: also called PD-L1-His

[2] = molecular target: T2, human CTLA-4 expressed on cells (human, UniProt P16410 36-223); assay: flow cytometry receptor occupancy, CHO cells expressing PD-1:CTLA-4 (40:1); free CTLA-4 detected with labeled anti-CTLA-4 mAb
T2 construct: also called CTLA-4 reporter cells
T2 sequence: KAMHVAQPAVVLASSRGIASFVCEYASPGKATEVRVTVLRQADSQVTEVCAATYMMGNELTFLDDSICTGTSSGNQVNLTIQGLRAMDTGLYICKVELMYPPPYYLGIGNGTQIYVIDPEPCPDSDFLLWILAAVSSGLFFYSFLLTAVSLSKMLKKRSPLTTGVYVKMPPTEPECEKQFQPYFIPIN

[3] = molecular target: T2, human CTLA-4 expressed on cells; assay: flow cytometry receptor occupancy, CHO cells expressing PD-1:CTLA-4 (10:1); free CTLA-4 detected with labeled anti-CTLA-4 mAb
[4] = molecular target: T3, cynomolgus CTLA-4 (cynomolgus, UniProt G7PL88 36-161); assay: SPR, BIAcore T200; antibody captured on mouse anti-huIgG-Fab, antigen injected
T3 construct: also called cyno CTLA4
T3 sequence: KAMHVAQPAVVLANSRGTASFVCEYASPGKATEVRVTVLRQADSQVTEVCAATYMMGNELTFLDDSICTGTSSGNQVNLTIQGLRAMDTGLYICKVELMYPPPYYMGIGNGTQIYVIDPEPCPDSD

[5] = molecular target: T4, human CTLA-4 antigen (soluble) (human, UniProt P16410 36-161); assay: as above
T4 construct: also called hu CTLA4; soluble CTLA-4 antigen
T4 sequence: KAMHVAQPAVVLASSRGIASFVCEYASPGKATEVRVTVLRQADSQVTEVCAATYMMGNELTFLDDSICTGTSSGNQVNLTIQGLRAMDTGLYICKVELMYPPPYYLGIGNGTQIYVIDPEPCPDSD

[6] = molecular target: T5, human PD-1 expressed on cells (human, UniProt Q15116 25-288); assay: flow cytometry receptor occupancy, CHO cells expressing PD-1:CTLA-4 (10:1); free PD-1 detected with labeled anti-PD-1 mAb
T5 construct: also called CHO cells overexpressing human PD1

[7] = molecular target: T2, human CTLA-4 expressed on cells; assay: flow cytometry receptor occupancy, CHO cells expressing PD-1:CTLA-4 (40:1), combination of the anti-PD-1 and anti-CTLA-4 mAbs; free CTLA-4 detected with labeled anti-CTLA-4 mAb; label stands beside the dark-diamond curve, which crosses 50 % at about 2.5 nM
[8] = molecular target: T2, human CTLA-4 expressed on cells; assay: flow cytometry receptor occupancy, CHO cells expressing PD-1:CTLA-4 (40:1); free CTLA-4 detected with labeled anti-CTLA-4 mAb; remark: listed apart in the source
[9] = molecular target: T6, mouse PD-1 (mouse, UniProt Q02242 25-167); assay: SPR, BIAcore T200; antibody captured on mouse anti-huIgG-Fab, antigen injected
T6 construct: also called mu PD1
T6 sequence (looked up): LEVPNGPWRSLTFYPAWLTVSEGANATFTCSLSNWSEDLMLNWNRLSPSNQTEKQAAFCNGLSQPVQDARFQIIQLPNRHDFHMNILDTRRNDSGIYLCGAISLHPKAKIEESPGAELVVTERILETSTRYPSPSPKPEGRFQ

[10] = molecular target: T7, human PD-1 antigen (soluble) (human, UniProt Q15116 25-170); assay: as above
T7 construct: also called hu PD1; Biotinylated human PD-1

[11] = molecular target: T8, cynomolgus PD-1 (cynomolgus, UniProt B0LAJ3 25-170); assay: as above
T8 construct: also called cyno PD1

[12] = molecular target: T5, human PD-1 expressed on cells; assay: flow cytometry receptor occupancy, CHO cells expressing PD-1:CTLA-4 (40:1); free PD-1 detected with labeled anti-PD-1 mAb
[13] = molecular target: T2, human CTLA-4 expressed on cells; assay: flow cytometry, CHO cells expressing CTLA-4 only
[14] = molecular target: T2, human CTLA-4 expressed on cells; assay: flow cytometry receptor occupancy, CHO cells expressing PD-1:CTLA-4 (40:1); free CTLA-4 detected with labeled anti-CTLA-4 mAb; remark: listed apart in the source
[15] = molecular target: T2, human CTLA-4 expressed on cells; assay: flow cytometry receptor occupancy, CHO cells expressing CTLA-4 only; free CTLA-4 detected with labeled anti-CTLA-4 mAb
[16] = molecular target: T5, human PD-1 expressed on cells; assay: flow cytometry receptor occupancy, CHO cells expressing PD-1:CTLA-4 (10:1); free PD-1 detected with labeled anti-PD-1 mAb; remark: listed apart in the source
[17] = molecular target: T5, human PD-1 expressed on cells; assay: flow cytometry, CHO cells expressing PD-1 only
[18] = molecular target: T2, human CTLA-4 expressed on cells; assay: cell-based or functional assay
[19] = molecular target: T5, human PD-1 expressed on cells; assay: cell-based or functional assay
[20] = molecular target: T2, human CTLA-4 expressed on cells; assay: receptor occupancy on CHO cells, flow cytometry
[21] = molecular target: T2, human CTLA-4 expressed on cells; assay: flow cytometry receptor occupancy, CHO cells expressing PD-1:CTLA-4 (10:1); free CTLA-4 detected with labeled anti-CTLA-4 mAb; remark: listed apart in the source
[22] = molecular target: T2, human CTLA-4 expressed on cells; assay: as above; remark: listed apart in the source
[23] = molecular target: T2, human CTLA-4 expressed on cells; assay: receptor occupancy on CHO cells expressing excess PD-1, flow cytometry

T5 sequence (Q15116 25-288 limits assumed): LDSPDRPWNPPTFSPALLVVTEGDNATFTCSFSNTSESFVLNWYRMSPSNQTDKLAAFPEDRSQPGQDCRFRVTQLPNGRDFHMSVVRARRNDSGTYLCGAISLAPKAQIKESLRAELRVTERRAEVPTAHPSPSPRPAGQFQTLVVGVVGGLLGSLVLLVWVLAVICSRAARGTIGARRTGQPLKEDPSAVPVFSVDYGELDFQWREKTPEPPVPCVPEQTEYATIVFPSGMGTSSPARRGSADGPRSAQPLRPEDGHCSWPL
T7 sequence (Q15116 25-170 limits assumed): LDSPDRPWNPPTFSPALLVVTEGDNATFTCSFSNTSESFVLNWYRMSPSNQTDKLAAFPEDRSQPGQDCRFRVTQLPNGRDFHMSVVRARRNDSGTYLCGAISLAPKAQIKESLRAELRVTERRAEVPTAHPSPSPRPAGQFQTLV
T8 sequence (B0LAJ3 entry or part of it limits assumed): as the sequence (Q15116 25-170 limits assumed) above, with D2E, P10A, V19L, T35A, Q75R, T144A counted along it
T1 sequence (Q9NZQ7 19-238 limits assumed): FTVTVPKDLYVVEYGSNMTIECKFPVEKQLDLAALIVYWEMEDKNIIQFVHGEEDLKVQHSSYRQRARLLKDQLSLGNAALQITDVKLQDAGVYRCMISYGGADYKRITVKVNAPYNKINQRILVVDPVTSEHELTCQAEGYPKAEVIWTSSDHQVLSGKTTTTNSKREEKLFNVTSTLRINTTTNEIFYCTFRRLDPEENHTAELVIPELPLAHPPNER

B1: hOX40-Fc (human recombinant protein, R&D Systems) (Fc fusion)
chain: LHCVGDTYPSNDRCCHECRPGNGMVSRCSRSQNTVCRPCGPGFYNDVVSSKPCKPCTWCNLRSGSERKQLCTATQDTVCRCRAGTQPLDSYKPGVDCAPCPPGHFSPGDNQACKPWTNCTLAGKHTLQPASNSSDAICEDRDPPATQPQETQGPPARPITVQPTEAWPRTSQGPSTRPVEVPGGRAVA
notes: also called human OX40-Fc; not shown: Fc part of the bought fusion
B1: no binding (tested: 5ug/mL) [1].

B2: Anti-CTLA-4 IgG (antibody, V domains shown)
VH: QVQLVESGGGVVQPGRSLRLSCAASGFTFSSYGMHWVRQAPGKGLEWVAVIWYDGSNKYYADSVKGRFTISRDNSKNTLYLQMNSLRAEDTAVYYCARDPRGATLYYYYYGMDVWGQGTTVTVSS
VL: DIQMTQSPSSLSASVGDRVTITCRASQSINSYLDWYQQKPGKAPKLLIYAASSLQSGVPSRFSGSGSGTDFTLTISSLQPEDFATYYCQQYYSTPFTFGPGTKVEIK
notes: also called tremelimumab; MEDI1123
B2 was tested, and the IC50 [2] was 4.4 nM, the IC50 [3] was 5 nM and the Kd [4] was 0.59 nM. The koff [4] was 0.000674 s⁻¹, the kon [4] was 1.15e+06 M⁻¹ s⁻¹ and the Kd [5] was 0.48 nM. The koff [5] was 0.000304 s⁻¹, the kon [5] was 633000 M⁻¹ s⁻¹ and the binding result [6] was “no binding (tested: about 200 nM)”. It also gave an IC50 [7] of 2.4 nM.

B3: PD-1/CTLA-4 DuetMab (bispecific antibody, human IgG1, kappa, lambda)
heavy 1: EVQLVESGGGLVQPGGSLRLSCAASGFTFSDYGMHWVRQAPGKGLEWVAYISSGSYTIYSADSVKGRFTISRDNAKNSLYLQMNSLRAEDTAVYYCARRAPNSFYEYYFDYWGQGTTVTVSSASTKGPSVFPLAPSSKSTSGGTAALGCLVKDYFPEPVTVSWNSGALTSGVHTFPAVLQSSGLYSLSSVVTVPSSSLGTQTYICNVNHKPSNTKVDKRVEPKSCDKTHTCPPCPAPEFEGGPSVFLFPPKPKDTLMISRTPEVTCVVVDVSHEDPEVKFNWYVDGVEVHNAKTKPREEQYNSTYRVVSVLTVLHQDWLNGKEYKCKVSNKALPASIEKTISKAKGQPREPQVCTLPPSREEMTKNQVSLSCAVKGFYPSDIAVEWESNGQPENNYKTTPPVLDSDGSFFLVSKLTVDKSRWQQGNVFSCSVMHEALHNHYTQKSLSLSPGK
light 1: QIVLTQSPATLSLSPGERATLSCSASSKHTNLYWSRHMYWYQQKPGQAPRLLIYLTSNRATGIPARFSGSGSGTDFTLTISSLEPEDFAVYYCQQWSSNPFTFGQGTKLEIKRTVAAPSVFIFPPSDEQLKSGTASVVCLLNNFYPREAKVQWKVDNALQSGNSQESVTEQDSKDSTYSLSSTLTLSKADYEKHKVYACEVTHQGLSSPVTKSFNRGEC
heavy 2: not shown
light 2: DIQMTQSPSSLSASVGDRVTITCRASQSINSYLDWYQQKPGKAPKLLIYAASSLQSGVPSRFSGSGSGTDFTLTISSLQPEDFATYYCQQYYSTPFTFGPGTKVEIKGQPKAAPSVTLFPPCSEELQANKATLVCLISDFYPGAVTVAWKADSSPVKAGVETTTPSKQSNNKYAASSYLSLTPEQWKSHRSYSCQVTHEGSTVEKTVAPTEVS
notes: also called DuetMab PD-1/CTLA-4; PD-1/CTLA-4 DuetMab bispecific antibody; copies: 1 + 1 + 1 + 1
In the case of B3, the IC50 [8] is reported as 0.01 nM, the Kd [4] is reported as 0.55 nM and the koff [4] is reported as 0.000634 s⁻¹. It also gave a kon [4] of 1.14e+06 M⁻¹ s⁻¹, a Kd [9] of 496 nM and a koff [9] of 0.0693 s⁻¹. It also gave a kon [9] of 140000 M⁻¹ s⁻¹, a Kd [10] of 0.81 nM and a koff [10] of 0.000236 s⁻¹. It also gave a kon [10] of 295000 M⁻¹ s⁻¹, a Kd [5] of 0.62 nM and a koff [5] of 0.000421 s⁻¹. The kon [5] was 684000 M⁻¹ s⁻¹, the Kd [11] was 0.44 nM and the koff [11] was 0.000215 s⁻¹. For the same binder, the kon [11] was 490000 M⁻¹ s⁻¹, the IC50 [12] was 14.4 nM and the “EC50 (read off the curve)” value [13] was about 4 nM. It also gave an IC50 [14] of 0.01 nM, an IC50 [15] of 4.6 nM and an IC50 [16] of 12.2 nM. For the same binder, the “EC50 (read off the curve)” value [17] was about 4 nM, the “fold decrease in CTLA-4 reporter gene assay, potency” value [18] was about 16 fold and the “fold decrease in PD-1 reporter gene assay, potency” value [19] was about 9 fold. The “fold lower concentration to saturate CTLA-4, against cells expressing only CTLA-4” value [20] was about 500 fold, the IC50 [21] was 0.38 nM and the IC50 [22] was 0.38 nM. For the same binder, the “fold lower concentration to saturate CTLA-4, against a combination of the monoclonal antibodies” value [23] was about 250 fold.
